The record followed here is patent US20200157212A1 (Pfizer, published 2020).

B1: Ab123 (antibody, human IgG1, kappa, V domains shown)
VH: EVQLVQSGAEVKKPGASVKVSCKASGYTFTGYYMHWVRQAPGQGLEWMGWINPNSGATNFPQKFQGRVTMTRDTSITTAYMDLSRLRSDDTAVYYCARESGDDAFDIWGQGTMVTVSS
VL: DIVMTQSPSSLSASVGDRVTITCRASQSISSYLNWYQQKPGKAPKLLIYAASSLQSGVPSRFSGSGSGTDFTLTISSLQPEDFATYYCQQSVGLFFGGGTKVEIKR
notes: full-length human IgG
B2: Ab96 (antibody, human IgG1, kappa, V domains shown)
VH: B1 VH with N54K, S55N, A57D, N59E
VL: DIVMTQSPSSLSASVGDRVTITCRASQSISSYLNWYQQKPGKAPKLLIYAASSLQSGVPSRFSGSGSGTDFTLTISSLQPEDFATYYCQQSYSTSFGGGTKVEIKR
notes: full-length human IgG
B3: Ab1 (antibody, human IgG1, kappa, V domains shown)
VH: B1 VH with Y33D
VL: B1 VL with S28K, V92Y, G93S, L94T, F95S
notes: full-length human IgG
B4: Ab17 (antibody, human IgG1, kappa, V domains shown)
VH: B1 VH with Y33D
VL: B1 VL with S56E, V92Y, G93S, L94T, F95S
notes: full-length human IgG
B5: Ab21 (antibody, human IgG1, kappa, V domains shown)
VH: B1 VH with Y33D
VL: B1 VL with S56Y, V92Y, G93S, L94T, F95S
notes: full-length human IgG
B6: Ab9 (antibody, human IgG1, kappa, V domains shown)
VH: B1 VH with Y33D
VL: B1 VL with S28R, V92Y, G93S, L94T, F95S
notes: full-length human IgG
B7: Ab13 (antibody, human IgG1, kappa, V domains shown)
VH: B1 VH with Y33D
VL: B1 VL with S56D, V92Y, G93S, L94T, F95S
notes: full-length human IgG
B8: Ab83 (antibody, human IgG1, kappa, V domains shown)
VH: B1 VH with N54R, S55N, A57I, N59S
VL: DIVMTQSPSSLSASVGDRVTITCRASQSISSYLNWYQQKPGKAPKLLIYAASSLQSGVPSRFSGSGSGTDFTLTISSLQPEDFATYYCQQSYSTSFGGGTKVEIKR
notes: full-length human IgG
B9: Ab112 (antibody, human IgG1, kappa, V domains shown)
VH: B1 VH
VL: B1 VL with F95S
notes: full-length human IgG
B10: Ab46 (antibody, human IgG1, kappa, V domains shown)
VH: B1 VH with W50A, N52D, N54K, S55H, A57F, N59I
VL: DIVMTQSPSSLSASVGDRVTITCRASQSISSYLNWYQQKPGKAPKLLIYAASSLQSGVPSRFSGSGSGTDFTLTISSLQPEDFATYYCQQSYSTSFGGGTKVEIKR
notes: full-length human IgG
B11: Ab58 (antibody, human IgG1, kappa, V domains shown)
VH: B1 VH with N54K, S55D, A57D, N59E
VL: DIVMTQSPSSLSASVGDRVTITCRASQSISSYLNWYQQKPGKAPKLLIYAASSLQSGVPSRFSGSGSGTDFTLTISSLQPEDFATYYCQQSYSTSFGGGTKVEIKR
notes: full-length human IgG

Residue numbers refer to the chain shown, from its start. Where only a bound is given, the exact number is not on record here.

The first experiment addresses T1, Human ROBO2 Ig1-Ig2-His (human, UniProt Q9HCK4 31-220).
T1 construct: the His tag is named only in the SPR paragraphs; the Octet and ELISA paragraphs print 'ROBO2 Ig1-Ig2' without a tag; also called ROBO2 Ig1-2; Human ROBO2 Ig 1,2
T1 sequence: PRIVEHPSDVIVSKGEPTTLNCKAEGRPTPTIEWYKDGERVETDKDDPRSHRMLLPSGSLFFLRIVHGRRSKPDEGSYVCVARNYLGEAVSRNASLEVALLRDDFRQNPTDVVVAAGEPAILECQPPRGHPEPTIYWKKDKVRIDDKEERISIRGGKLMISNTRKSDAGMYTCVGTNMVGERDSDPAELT
Briefly: Octet (BLI), relative Kd.
As for B1, the affinity, expressed as Kd, was 1.4 nM.

Take B2: the affinity, expressed as Kd, was 1.2 nM.

The target in a further experiment is T2, Human ROBO2 overexpressed on HEK293 cells (human, UniProt Q9HCK4 22-1378).
T2 construct: also called ROBO2 cells; native ROBO2
T2 sequence: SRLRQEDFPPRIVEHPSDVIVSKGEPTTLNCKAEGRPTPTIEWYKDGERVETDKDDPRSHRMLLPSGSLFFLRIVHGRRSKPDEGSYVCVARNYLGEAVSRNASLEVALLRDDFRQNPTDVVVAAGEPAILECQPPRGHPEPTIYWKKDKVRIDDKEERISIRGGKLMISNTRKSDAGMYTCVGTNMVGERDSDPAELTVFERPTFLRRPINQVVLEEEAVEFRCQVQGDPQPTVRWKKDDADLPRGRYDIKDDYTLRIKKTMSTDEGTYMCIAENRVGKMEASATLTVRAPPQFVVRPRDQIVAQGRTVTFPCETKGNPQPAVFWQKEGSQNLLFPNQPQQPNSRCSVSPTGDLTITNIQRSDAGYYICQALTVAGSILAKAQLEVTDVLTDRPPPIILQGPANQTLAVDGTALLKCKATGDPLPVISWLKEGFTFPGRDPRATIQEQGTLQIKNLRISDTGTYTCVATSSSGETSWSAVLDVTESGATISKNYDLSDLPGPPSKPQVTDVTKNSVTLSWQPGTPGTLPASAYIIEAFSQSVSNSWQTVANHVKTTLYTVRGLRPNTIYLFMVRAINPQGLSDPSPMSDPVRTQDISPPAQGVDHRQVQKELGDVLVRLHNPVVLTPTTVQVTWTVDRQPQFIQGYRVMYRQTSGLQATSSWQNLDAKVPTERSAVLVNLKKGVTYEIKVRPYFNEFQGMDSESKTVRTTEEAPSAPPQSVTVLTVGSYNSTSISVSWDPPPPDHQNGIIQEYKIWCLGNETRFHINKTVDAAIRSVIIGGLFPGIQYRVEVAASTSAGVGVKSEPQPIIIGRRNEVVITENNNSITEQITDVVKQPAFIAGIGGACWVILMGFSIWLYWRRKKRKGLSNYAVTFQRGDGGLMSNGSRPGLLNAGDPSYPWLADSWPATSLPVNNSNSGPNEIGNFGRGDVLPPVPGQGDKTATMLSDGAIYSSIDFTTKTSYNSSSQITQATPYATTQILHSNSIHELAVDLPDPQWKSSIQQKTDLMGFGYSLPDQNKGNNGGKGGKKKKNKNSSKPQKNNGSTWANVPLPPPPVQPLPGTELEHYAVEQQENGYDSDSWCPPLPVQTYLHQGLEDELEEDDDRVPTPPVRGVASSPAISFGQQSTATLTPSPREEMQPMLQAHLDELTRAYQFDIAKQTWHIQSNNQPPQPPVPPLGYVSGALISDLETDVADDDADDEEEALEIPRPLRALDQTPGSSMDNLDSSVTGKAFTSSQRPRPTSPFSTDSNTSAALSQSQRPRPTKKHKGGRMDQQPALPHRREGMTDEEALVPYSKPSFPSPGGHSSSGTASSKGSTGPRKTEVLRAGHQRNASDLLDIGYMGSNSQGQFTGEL
Put plainly: flow cytometry on HEK293 cells overexpressing human ROBO2; N.B. = No binding to ROBO2. How it is done:
The parental 93H2 antibody was highly ROBO2 specific, therefore affinity matured antibodies with single point neutralizing activity were screened by flow cytometry to ensure ROBO2 selectivity had been maintained. […] Binding of the antibodies was detected using a secondary fluorochrome conjugated anti-human IgG F(ab′)₂ antibody and samples were analyzed on a Fortessa cytometer (BD Biosciences). The fold ROBO2 selectivity was calculated as the geometric mean fluorescence intensity (Geo MFI) with ROBO2 cells/Geo MFI with ROBO1 cells. A fold change higher than 3 was considered to be ROBO2 specific (Table 2, Fold Selectivity). Some affinity matured clones had increased ROBO1 reactivity, for example Abcs 55, CTI-R2-10 and CTIR2-13.
Table 2 is a summary of assays used to screen antibodies against ROBO1 and/or ROBO2 to identify an antibody that specifically recognized ROBO2 but not ROBO1 with high affinity. […] Full dose curves were performed in the same assay for select antibodies. Recognition of native, surface expressed protein and ROBO2 selectivity was evaluated by flow cytometry. […] Anything with a value of greater than 3 was deemed to be selective for ROBO2. Outcomes of the various screening assays conducted for each antibody are highlighted in the final column.
Take B3: the binding result was “no binding (tested: 0.1 µg/ml)”.

Consider B4, for which the binding result is “no binding (tested: 0.1 µg/ml)”.

On to B5, for which the binding result is recorded as “no binding (tested: 0.1 µg/ml)”.

For B6, the binding result is on record as “no binding (tested: 0.1 µg/ml)”.

Consider B7, for which the binding result is reported as “no binding (tested: 0.1 µg/ml)”.

The next experiment deals with T2, Human ROBO2 overexpressed on HEK293 …. Briefly: flow cytometry, Geo MFI ROBO2/ROBO1 HEK293 cells, 0.1 µg/ml. How it is done:
Binding of the antibodies was detected using a secondary fluorochrome conjugated anti-human IgG F(ab′)₂ antibody and samples were analyzed on a Fortessa cytometer (BD Biosciences). The fold ROBO2 selectivity was calculated as the geometric mean fluorescence intensity (Geo MFI) with ROBO2 cells/Geo MFI with ROBO1 cells. A fold change higher than 3 was considered to be ROBO2 specific (Table 2, Fold Selectivity). Some affinity matured clones had increased ROBO1 reactivity, for example Abcs 55, CTI-R2-10 and CTIR2-13.
HTRF assays were run with 5 nM d2-labeled SLIT2-N and antibodies were added at 1 nM. […] Antibodies derived from chain (Abcs series) or CDR shuffling (CTIR-2 series) were evaluated in 11-point, 5-fold dilution series with a top concentration of 1500 nM, N.T. = not tested; ^cFold selectivity was calculated as Geometric Mean Fluorescent Intensity (Geo MFI) of ROBO2/Geo MFI of ROBO1 binding. […] Outcomes: results are listed in order of assays listed in the table (left to right), I.A. = Improved Affinity
Turning to B8, the “Fold Selectivity for ROBO2/ROBO1” value amounted to 40.6 fold.

B1: the “Fold Selectivity for ROBO2/ROBO1” value came to 80.5 fold.

B9: the “Fold Selectivity for ROBO2/ROBO1” value came out at 39.2 fold.

Turning to B10, the “Fold Selectivity for ROBO2/ROBO1” value is above 100 fold.

For the molecule B2, the “Fold Selectivity for ROBO2/ROBO1” value amounted to 35 fold.

Take B11: the “Fold Selectivity for ROBO2/ROBO1” value amounted to 21.8 fold.

In another experiment the target is T3, Terbium (Tb) labeled-SNAP tagged ROBO2 expressed on HEK293 cells (Homo sapiens (Human), UniProt Q9HCK4 22-1378, terbium label on the SNAP tag).
T3 construct: also called Tb-labeled ROBO2 cells; ROBO2 expressing cells; not shown: SNAP tag
T3 sequence: T2 sequence
Briefly: HTRF competition, competitor d2-SLIT2-N, ROBO2 HEK293 cells. Put shortly: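 HEK293 cells expressing Tb-labeled SNAP-ROBO2 were incubated 1 hour with 5 nM d2-SLIT2-N plus antibody, read as the 665/620 nm HTRF ratio. Controls were no antibody (maximal) and cells alone (minimal). Screening used 1 nM antibody; IC₅₀ came from 11-point, 5-fold dilutions starting at 1500 nM.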
In turn, B8 registered an IC50 of 0.437 nM.

In turn, B1 showed an IC50 of 0.26 nM.

For B9, the half-maximal inhibitory concentration (IC50) is 0.174 nM.

As to B10, the 50% inhibitory concentration (IC50) was 0.109 nM.

As to B2, the concentration for half-maximal inhibition (IC50) is 0.166 nM.

In turn, B11 registered an IC50 of 0.282 nM.

The target in a further experiment is T3, Terbium (Tb) labeled-SNAP tagged ROBO2 …. Briefly: HTRF, 5 nM d2-SLIT2-N on Tb-SNAP-ROBO2 HEK293 cells, 1 nM antibody. Put shortly: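 Tb-SNAP-ROBO2 HEK293 cells incubated 1 hour with 5 nM d2-SLIT2-N, with 1 nM anti-ROBO2 antibody or none (maximal signal); cells alone gave minimum. HTRF read at 665/620 nm; IC50 series used 11-point, 5-fold dilutions from 1500 nM.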
With B3, the “HTRF Ratio” value came to 14000.

For the molecule B8, the “HTRF Ratio” value amounted to 4770.

On to B4, for which the “HTRF Ratio” value worked out at 13500.

For the molecule B5, the “HTRF Ratio” value stood at 13100.

In the case of B1, the “HTRF Ratio” value turned out to be 7710.

With B6, the “HTRF Ratio” value stood at 13600.

Regarding B9, the “HTRF Ratio” value amounted to 7300.

On to B10, for which the “HTRF Ratio” value was 5710.

Turning to B2, the “HTRF Ratio” value came to 3680.

With B11, the “HTRF Ratio” value was found to be 5570.

B7: the “HTRF Ratio” value amounted to 13800.
